This is an account of results in publication PMC9427776, “TTYH family members form tetrameric complexes at the cell membrane” (Communications Biology, 2022).

Data set [1] deals with mTTYH3 ECD1-T4L-ECD2 (mouse | not stated) (UniProt Q6P5F7). In words: cross-linking; secreted protein from clarified insect cell medium, DSS at 0, 10, 50, 100, 200, 2000 uM; western blot.
Data set [2] deals with the molecule itself. In words: cross-linking; in situ on adherent HEK 293 cells with membrane-impermeable BS3 (0, 10, 50, 100, 200, 2000 uM), 1 h at room temperature; lysis in 1% DDM; SDS-PAGE and anti-FLAG western blot.
Data set [3] concerns the molecule itself. Description: native gel or EMSA; Blue-Native PAGE of HEK 293 lysates in 0.05% (mTTYH1) or 0.1% (mTTYH3) DDM, 50 mM NaCl, 20 mM Tris-HCl pH 7.5; anti-FLAG western blot. (Mobility shift assays separate free from complexed probe on a gel.)
Data set [4] concerns the molecule itself. Description: SEC-MALS; purified mTTYH1-GFP-8xHis, 50 uL at 1.18 mg/mL, Superdex 200 Increase, 20 mM Tris pH 7.5, 150 mM NaCl, 0.3 mM DDM; protein conjugate analysis. (In general: Size exclusion chromatography separates by hydrodynamic size, large species first.)
Data set [5] deals with the molecule itself. Description: SEC; FSEC of HEK 293 cells solubilised in 1% DDM, Superdex 200 Increase, 150 mM NaCl, 50 mM Tris-HCl pH 7.5, 1 mM DDM; EGFP fluorescence; also after 10 min at 20-80 C (FSEC-TS) or with 20 mM 2-ME, both of which shift the population toward dimers.
Data set [6] concerns the molecule itself. In words: single-molecule subunit counting (photobleaching steps of EGFP, TIRFM); EGFP fusions at low density in the plasma membrane of living Xenopus laevis oocytes, room temperature; bleaching steps counted by hand, fit to a binomial distribution (p = 0.7).

Values joined by “and” are separate entries in the source; they are usually repeats but may differ in a detail not shown here. Identical values can stand only once.

Usually stoichiometry N stands for the number of molecules, sites or subunits per partner or assembly. Consider “mTTYH3 ECD1-T4L-ECD2 (from UniProt Q6P5F7 107-209; Q6P5F7 260-386) (domain or fragment)”, for which, in data set [1], the stoichiometry N was 4.

B1: FLAG-tagged mTTYH1 (natural protein, mouse, UniProt Q9D3A9 1-450, looked up)
chain: MGAPPGYRPSAWVHLLHQLPRADFQLRPVPSGFAPRDQEYQQALLLVAALAGLGLGLSLIFIAVYLIRFCCCRPPEPHGAKSPPPGGGCVTWSCIAALLVGCAGIGIGFYGNSETSDGVSQLSSALLHANHTLSTIDDVVLETVERLGEAVKTELTTLEEVLSVRMELVAATRGARRQAEAAAQYLQGLAFWQGVSLSPVQVAEDVTFVEEYRWLAYVLLLLLVLLVCLFTLLGLAKQSKWLVVVMTAMSLLVLVLSWGSMGLEAATAVGLSDFCSNPDTYVLNLTQEETGLSSDILSYYFLCNQAVSNPFQQRLTLSQRALASIHSQLQGLEREAIPQFSAAQKPLLSLEETLNVTERSFHQLVALLHCRSLHKDYGSALRGLCEDALEGLLFLMLFSLLSAGALATTLCSLPRAWALFPPSDDYDDTDDDDPFNPQESKRFVQWQSSI
notes: mouse Tweety homolog 1 (mTTYH1), intact protein; so the FLAG is probably C-terminal; also called mouse Tweety homolog 1; source: HEK 293 cells (HEK293T), transiently transfected; cross-linked on the cells or in DDM lysate
Turning to B1, the “stoichiometry N” value in data set [2] is 4; in data set [3], 2.

B2: mTTYH1-GFP-8xHis (natural protein, mouse, UniProt Q9D3A9 1-450, looked up)
chain: MGAPPGYRPSAWVHLLHQLPRADFQLRPVPSGFAPRDQEYQQALLLVAALAGLGLGLSLIFIAVYLIRFCCCRPPEPHGAKSPPPGGGCVTWSCIAALLVGCAGIGIGFYGNSETSDGVSQLSSALLHANHTLSTIDDVVLETVERLGEAVKTELTTLEEVLSVRMELVAATRGARRQAEAAAQYLQGLAFWQGVSLSPVQVAEDVTFVEEYRWLAYVLLLLLVLLVCLFTLLGLAKQSKWLVVVMTAMSLLVLVLSWGSMGLEAATAVGLSDFCSNPDTYVLNLTQEETGLSSDILSYYFLCNQAVSNPFQQRLTLSQRALASIHSQLQGLEREAIPQFSAAQKPLLSLEETLNVTERSFHQLVALLHCRSLHKDYGSALRGLCEDALEGLLFLMLFSLLSAGALATTLCSLPRAWALFPPSDDYDDTDDDDPFNPQESKRFVQWQSSI
modifications: N-glycosylated (HexNAc at Asn; sites not given)
notes: mouse Tweety homolog 1 (mTTYH1), intact protein; also called purified mTTYH1-GFP; intact mTTYH1-GFP; not shown: EGFP, C-terminal, kept; His8, C-terminal, kept
B2: the “stoichiometry N” value in data set [4] is 4 and 2.

B3: mTTYH1-EGFP (HEK 293, pEGFP-N1) (natural protein, mouse, UniProt Q9D3A9 1-450, looked up)
chain: MGAPPGYRPSAWVHLLHQLPRADFQLRPVPSGFAPRDQEYQQALLLVAALAGLGLGLSLIFIAVYLIRFCCCRPPEPHGAKSPPPGGGCVTWSCIAALLVGCAGIGIGFYGNSETSDGVSQLSSALLHANHTLSTIDDVVLETVERLGEAVKTELTTLEEVLSVRMELVAATRGARRQAEAAAQYLQGLAFWQGVSLSPVQVAEDVTFVEEYRWLAYVLLLLLVLLVCLFTLLGLAKQSKWLVVVMTAMSLLVLVLSWGSMGLEAATAVGLSDFCSNPDTYVLNLTQEETGLSSDILSYYFLCNQAVSNPFQQRLTLSQRALASIHSQLQGLEREAIPQFSAAQKPLLSLEETLNVTERSFHQLVALLHCRSLHKDYGSALRGLCEDALEGLLFLMLFSLLSAGALATTLCSLPRAWALFPPSDDYDDTDDDDPFNPQESKRFVQWQSSI
notes: mouse Tweety homolog 1 (mTTYH1), intact protein; also called EGFP-fused mTTYH1; source: HEK 293 cells, transiently transfected, detergent-solubilised lysate; not shown: EGFP, C-terminal, kept
Take B3: the “stoichiometry N” value in data set [5] is 4 and 2.

B4: mTTYH1-EGFP (Xenopus oocytes, pGH19) (natural protein, mouse, UniProt Q9D3A9 1-450, looked up)
chain: MGAPPGYRPSAWVHLLHQLPRADFQLRPVPSGFAPRDQEYQQALLLVAALAGLGLGLSLIFIAVYLIRFCCCRPPEPHGAKSPPPGGGCVTWSCIAALLVGCAGIGIGFYGNSETSDGVSQLSSALLHANHTLSTIDDVVLETVERLGEAVKTELTTLEEVLSVRMELVAATRGARRQAEAAAQYLQGLAFWQGVSLSPVQVAEDVTFVEEYRWLAYVLLLLLVLLVCLFTLLGLAKQSKWLVVVMTAMSLLVLVLSWGSMGLEAATAVGLSDFCSNPDTYVLNLTQEETGLSSDILSYYFLCNQAVSNPFQQRLTLSQRALASIHSQLQGLEREAIPQFSAAQKPLLSLEETLNVTERSFHQLVALLHCRSLHKDYGSALRGLCEDALEGLLFLMLFSLLSAGALATTLCSLPRAWALFPPSDDYDDTDDDDPFNPQESKRFVQWQSSI
notes: mouse Tweety homolog 1 (mTTYH1), intact protein; also called EGFP-fused mTTYH1; source: Xenopus laevis oocytes injected with about 1 ng cRNA, at the plasma membrane; not shown: EGFP, C-terminal, kept
Consider B4, for which the “stoichiometry N” value in data set [6] amounted to 4.

B5: mTTYH3-EGFP (HEK 293, pEGFP-N1) (natural protein, mouse, UniProt Q6P5F7 1-524, looked up)
chain: MAGVSYAAPWWVSLLHRLPHFDLRWEATSSQFRPEDADYQQALLLLGATALACLALDLLFLLFYSFWLCCRRRKTDEHLDADCCCTAWCVIITTLVCSAGIAVGFYGNGETSDGIHRATYSLRHANRTVAGVQDRVWDTAAALNRTAEPNLQSLERQLAGRQEPLRAVQRLQTLLGTLLGYTAAIPFWRNPGVSLEVLAEQVDLYDWYRWLGYLGLLLLDVIICLLVLVGLIRSSKGILVGVCLLGVLALVISWGALGLELAVSVGSSDFCVDPDTFVTKMVEEHSVLSGDILQYYLACSPRATNPFQQKLSGSHKALVEMQDVVAELLRNVPREHPATKDPLLRVQEVLNGTEVNLQHLTALVDCRSLHLDYVQALTGFCYDGVEGLIYLALFSFVTALMFSSIVCSIPHTWQQKRGPDDDGEEETAPGPRQAHDSLYRVHMPSLYSCGSSYGSEASIPAAAHTVSNAPVTEYMSQNANFQNPRCENTPLIGRESPPPSYTSSMRAKYLATSQPRPDSSGSGH
notes: mouse Tweety homolog 3 (mTTYH3), intact protein; also called EGFP-fused mTTYH3; mTTYH3-GFP; source: HEK 293 cells, transiently transfected, detergent-solubilised lysate; not shown: EGFP, C-terminal, kept
In the case of B5, in data set [5], the “stoichiometry N” value is 4 and 2.

B6: FLAG-tagged mTTYH3 (natural protein, mouse, UniProt Q6P5F7 1-524, looked up)
chain: MAGVSYAAPWWVSLLHRLPHFDLRWEATSSQFRPEDADYQQALLLLGATALACLALDLLFLLFYSFWLCCRRRKTDEHLDADCCCTAWCVIITTLVCSAGIAVGFYGNGETSDGIHRATYSLRHANRTVAGVQDRVWDTAAALNRTAEPNLQSLERQLAGRQEPLRAVQRLQTLLGTLLGYTAAIPFWRNPGVSLEVLAEQVDLYDWYRWLGYLGLLLLDVIICLLVLVGLIRSSKGILVGVCLLGVLALVISWGALGLELAVSVGSSDFCVDPDTFVTKMVEEHSVLSGDILQYYLACSPRATNPFQQKLSGSHKALVEMQDVVAELLRNVPREHPATKDPLLRVQEVLNGTEVNLQHLTALVDCRSLHLDYVQALTGFCYDGVEGLIYLALFSFVTALMFSSIVCSIPHTWQQKRGPDDDGEEETAPGPRQAHDSLYRVHMPSLYSCGSSYGSEASIPAAAHTVSNAPVTEYMSQNANFQNPRCENTPLIGRESPPPSYTSSMRAKYLATSQPRPDSSGSGH
notes: mouse Tweety homolog 3 (mTTYH3), intact protein; so the FLAG is probably C-terminal; also called mouse Tweety homolog 3; source: HEK 293 cells (HEK293T), transiently transfected; cross-linked on the cells or in DDM lysate
Take B6: the “stoichiometry N” value came out at 4 in data set [2] and 2 in data set [3].

B7: mTTYH3-EGFP (Xenopus oocytes, pGH19) (natural protein, mouse, UniProt Q6P5F7 1-524, looked up)
chain: MAGVSYAAPWWVSLLHRLPHFDLRWEATSSQFRPEDADYQQALLLLGATALACLALDLLFLLFYSFWLCCRRRKTDEHLDADCCCTAWCVIITTLVCSAGIAVGFYGNGETSDGIHRATYSLRHANRTVAGVQDRVWDTAAALNRTAEPNLQSLERQLAGRQEPLRAVQRLQTLLGTLLGYTAAIPFWRNPGVSLEVLAEQVDLYDWYRWLGYLGLLLLDVIICLLVLVGLIRSSKGILVGVCLLGVLALVISWGALGLELAVSVGSSDFCVDPDTFVTKMVEEHSVLSGDILQYYLACSPRATNPFQQKLSGSHKALVEMQDVVAELLRNVPREHPATKDPLLRVQEVLNGTEVNLQHLTALVDCRSLHLDYVQALTGFCYDGVEGLIYLALFSFVTALMFSSIVCSIPHTWQQKRGPDDDGEEETAPGPRQAHDSLYRVHMPSLYSCGSSYGSEASIPAAAHTVSNAPVTEYMSQNANFQNPRCENTPLIGRESPPPSYTSSMRAKYLATSQPRPDSSGSGH
notes: mouse Tweety homolog 3 (mTTYH3), intact protein; also called EGFP-fused mTTYH3; source: Xenopus laevis oocytes injected with about 1 ng cRNA, at the plasma membrane; not shown: EGFP, C-terminal, kept
In the case of B7, the “stoichiometry N” value in data set [6] worked out at 4.

B8: EGFP fusion of KCNH1 (natural protein, UniProt O95259 1-989, looked up)
chain: MTMAGGRRGLVAPQNTFLENIVRRSNDTNFVLGNAQIVDWPIVYSNDGFCKLSGYHRAEVMQKSSTCSFMYGELTDKDTIEKVRQTFENYEMNSFEILMYKKNRTPVWFFVKIAPIRNEQDKVVLFLCTFSDITAFKQPIEDDSCKGWGKFARLTRALTSSRGVLQQLAPSVQKGENVHKHSRLAEVLQLGSDILPQYKQEAPKTPPHIILHYCVFKTTWDWIILILTFYTAILVPYNVSFKTRQNNVAWLVVDSIVDVIFLVDIVLNFHTTFVGPAGEVISDPKLIRMNYLKTWFVIDLLSCLPYDVINAFENVDEVSAFMGDPGKIGFADQIPPPLEGRESQGISSLFSSLKVVRLLRLGRVARKLDHYIEYGAAVLVLLVCVFGLAAHWMACIWYSIGDYEIFDEDTKTIRNNSWLYQLAMDIGTPYQFNGSGSGKWEGGPSKNSVYISSLYFTMTSLTSVGFGNIAPSTDIEKIFAVAIMMIGSLLYATIFGNVTTIFQQMYANTNRYHEMLNSVRDFLKLYQVPKGLSERVMDYIVSTWSMSRGIDTEKVLQICPKDMRADICVHLNRKVFKEHPAFRLASDGCLRALAMEFQTVHCAPGDLIYHAGESVDSLCFVVSGSLEVIQDDEVVAILGKGDVFGDVFWKEATLAQSCANVRALTYCDLHVIKRDALQKVLEFYTAFSHSFSRNLILTYNLRKRIVFRKISDVKREEEERMKRKNEAPLILPPDHPVRRLFQRFRQQKEARLAAERGGRDLDDLDVEKGNVLTEHASANHSLVKASVVTVRESPATPVSFQAASTSGVPDHAKLQAPGSECLGPKGGGGDCAKRKSWARFKDACGKSEDWNKVSKAESMETLPERTKASGEATLKKTDSCDSGITKSDLRLDNVGEARSPQDRSPILAEVKHSFYPIPEQTLQATVLEVRHELKEDIKALNAKMTNIEKQLSEILRILTSRRSSQSPQELFEISRPQSPESERDIFGAS
notes: KCNH1, voltage-gated K+ channel; Positive control of the subunit counting; also called EGFP-fused KCNH1; source: Xenopus laevis oocytes injected with 1 ng cRNA, at the plasma membrane
Consider B8, for which the “stoichiometry N” value in data set [6] was 4.
